Laboratory results taken from publication PMC4316190, “Crystal structure of UbiX, an aromatic acid decarboxylase from the psychrophilic bacterium Colwellia psychrerythraea that undergoes FMN-induced conformational changes” (Scientific Reports, 2015).
Residue numbers refer to the chain shown, from its start. Names and notes keep the numbering of the source.

What was measured:
[1] = target: T1, CpsUbiX (Colwellia psychrerythraea, UniProt Q489U8); assay: X-ray crystal structure, […] Å; format: binding; settings: co-purified from E. coli; crystals at pH 5.8; site at the interface of three subunits
T1 construct: gene ubiX; full length, residues 1-206, pET-28a(+) NdeI/XhoI, E. coli BL21(DE3), His-tag cleaved with thrombin, dodecamer; FMN site formed by three neighbouring subunits

[2] = target: the molecule itself; assay: crystal structure; wild type CpsUbiX with bound FMN; space group C222(1), 6 monomers in the asymmetric unit, dodecamer generated by crystallographic symmetry; 200 mM NaCl, 100 mM potassium/sodium phosphate pH 5.8, 11% PEG-8000; 1.9 Å
[3] = target: the molecule itself; assay: crystal structure; V47S mutant CpsUbiX without FMN; space group P23, one molecule in the asymmetric unit, dodecamer generated by crystallographic symmetry; 0.1 M tri-sodium citrate pH 5.4, 0.5 M ammonium sulfate, 1.2 M lithium sulfate, 293 K; 1.76 Å

## Cc1cc2nc3c(=O)[nH]c(=O)nc-3n(C[C@H](O)[C@H](O)[C@H](O)COP(=O)(O)O)c2cc1C [FMN]
[1]
  X-ray crystal structure, 1.9 Å: FMN-bound (wild type) and FMN-free (V47S mutant) CpsUbiXs were deposited in the Protein Data Bank

B1: Colwellia psychrerythraea 34H UbiX protein (CpsUbiX), wild type, FMN-bound form (enzyme, UniProt Q489U8 1-206, looked up)
chain: MNNDFNGKITLAITGASGASYAMRLIECLIAANYQLYILCSSAGRIVLDTEVGVKIPSSPDAASKFLTEKYQAKDQQITVFGKEQWFSPVASGSSAPKQMVVCPCSTGTMAAICHGMSDNLIERAADVVIKERGQLILMVRETPFSTLHLQNMLSLSQQGVTIMPASPGFYHKVETIEDLIDFMVGRVLDHLGIEQDIMPRWGYNI
notes: UbiX (3-octaprenyl-4-hydroxybenzoate carboxylase) of Colwellia psychrerythraea strain 34H (ATCC BAA-681), UniProt Q489U8, full-length gene, residues 1-206; Cloned between the NdeI and XhoI sites of pET-28a(+); the His-tag was cleaved with thrombin, so a few vector residues probably remain at the N-terminus (surmised); also called 3-octaprenyl-4-hydroxybenzoate carboxylase; wild type CpsUbiX; …
[2]
  stoichiometry N: 12

B2: V47S mutant CpsUbiX (FMN-free form) (enzyme, Colwellia psychrerythraea 34H, UniProt Q489U8 1-206, looked up)
chain: B1 chain with V47S
notes: UbiX (3-octaprenyl-4-hydroxybenzoate carboxylase) of Colwellia psychrerythraea strain 34H, UniProt Q489U8, residues 1-206, with V47S; it was expressed and purified as the wild type; also called V47S CpsUbiX; FMN-free CpsUbiX; source: E. coli BL21 (DE3), purified by methods similar to the wild type (Ni-NTA, thrombin cleavage, Superdex-200 SEC); copies: 12
[3]
  stoichiometry N: 12
